# Assay results: patent publication US20220403332A1, “SELF-ORGANIZING NEURAL ECTODERMAL LINEAGE CELLULAR STRUCTURES, AND COMPOSITIONS AND METHODS RELATING THERETO” (THE ROCKEFELLER UNIVERSITY, priority 2019, published 2022)
# B1: BMP4: bone morphogenetic protein (BMP) used as morphogen to drive neuruloid formation (protein, UniProt P12644 293-408, looked up)
# Bone morphogenetic protein 4: SPKHHSQRARKKNKNCRRHSLYVDFSDVGWNDWIVAPPGYQAFYCHGDCPFPLADHLNSTNHAIVQTLVNSVNSSIPKACCVPTELSAISMLYLDEYDKVVLKNYQEMVVEGCGCR
# Assays:
# Format in all cases: cell-based, human
# [1] = system: day 7 neuruloid; assay: neuruloid formation with blebbistatin, day 7 immunofluorescence; conditions: day 7 neuruloid treated with Blebbistatin 5 μM; stained for DAPI, N-CAD, PAX6, COL4 (FIG. 12E)
# Excerpt: FIG. 12—related to FIG. 6. (A) RUES2 and 56CAG background distribution within the main cell populations found in the neuruloid. All clusters are well represented in either background although 56CAG has a higher relative proportion of NC and placode cells. (B) Gene ontology analyses using DAVID (www.david.ncifcrf.gov) for NE- and NC-specific DEG between RUES2 and 56CAG. (C) Violin plots showing the distribution of normalized gene expression values for the genes in FIGS. 6B and 6C. (D) qPCR validation of the down-regulation of WNT/PCP and cytoskeleton-associated genes in the 56CAG neuruloid versus WT RUES2. (E) Representative image of a day 7 neuruloid treated with Blebbistatin (5 μM) and stained for DAPI, N-CAD, PAX6, and COL4. (Top) side view, (Bottom) top view.
# In order to unravel the molecular mechanisms underlying the morphogenetic defect, single-cell RNA-seq data of neuruloids in WT and 56CAG background was explored. All major cell populations found in the WT neuruloid were also present in the 56CAG background, supporting the lack of influence on fate specification (FIG. 12A). […] Using Seurat to identify differentially expressed genes (DEG) between 56CAG and RUES2 cell lines, 499 misregulated genes specific to the NE (adjusted p-value ≤0.05 and a minimum percentage difference in cells expressing the gene ≥10%) and 663 specific for the NC population was found (FIG. 6E). […]
# [2] = system: pSMAD1; assay: signaling dynamics time-course after BMP4 presentation (immunofluorescence, western blot)
# Protocol: FIG. 4 depicts coupling of cell fate specification with a two-step morphogenesis mechanism during neuruloid formation. (A) (Top) time course immunofluorescence analysis of the neuruloid from day 3 to 4. Day 3 micropattern colonies were treated with BMP4 (3 ng/ml) for 1, 3, 5, 10, and 24 hours then stained with PAX6, pSMAD1, and TFAP2A. (Bottom Left) Western blot analysis of the micropattern colonies treated with BMP as above. Sample were stained with anti-pSMAD1/5 antibody. Anti-total SMAD antibody was used as a control. (Bottom Right) Quantification of the western blot analysis. (B) Time-lapse video microscopy imaging of neuruloid formation from day 3 to 6 using the live reporter line (PAX6::H2B-Citrin and SOX10::H2B-tdTomato). Images were recorded every 30 min from day 3 to the end of day 5 (66 hours total). Representative images are shown (a; first image of day 3, b; first image of day 4, c; first image of day 5, d; last image of day 5). […] (E) Associated quantification of PAX6, SIX1, and SOX10 area of the neuruloid treated with indicated drugs. […]
# To uncover the molecular mechanisms of neuruloid self-organization, the signaling dynamics over a time-course after BMP4 presentation was followed. […] Only a few SOX10+ cells were detected during this initial phase, but a large expansion occurred in the SOX10 area concomitant with the PAX6 domain condensation starting at day 5. […]
# [3] = system: 500 μm micropatterned colonies (hESCs, RUES2); assay: neuruloid formation at different BMP4 concentrations, day 7 immunofluorescence; conditions: 500 μm colonies at day 7
# Excerpt: FIG. 2 depicts self-organization into neuruloids on micropatterns. (A) Schematic of the neuruloid differentiation protocol. (B) Immunofluorescence imaging of 80, 200 and 500 μm of day 7 micropatterned colonies. Samples were stained with DAPI (gray), PAX6 (green), and N-CAD (orange). (C) Immunofluorescence imaging of 500 μm of day 7 micropatterned colonies. Samples were stained with DAPI (gray), PAX6 (green), and COL4 (Collagen IV, orange). Side view of resliced z-stack around PAX6+ center region, colony edge region is also shown. (D) replicates with PAX6 (green) and SOX10 (red). (E) (Left) Immunofluorescence imaging of 500 μm micropatterned colonies at day 7 with different BMP4 concentrations: 0, 3, 13, and 50 ng/ml. Samples were stained with PAX6 (green), SOX10 (red) and cranial placode marker SIX1 (orange). (Right) Quantifications of SIX1 positive cell number. Data are mean±standard deviation. (F) (Top Left) Sketch of the ectodermal compartment at neurulation in vivo. (Top Right) Sketch of the neuruloid on micropattern. (Middle panel) Side view of the day 7 neuruloid with 3 ng/ml of BMP. Samples were stained with DAPI, PAX6, SOX10, SIX1, and non-neural ectoderm maker TFAP2A. Note that the TFAP2A+ also stain a few SOX10 and SIX1 positive cells. The non-neural ectoderm cells are only TFAP2A positive. (Bottom) Top view by multiple z from bottom to top. All scale bars represent 50 μm. […]
Molecule,central neuro-epithelium morphology (opened versus closed) [1],TFAP2A induction ([2]; 24 hours after BMP4 (3 ng/ml) presentation at day 3),"pSMAD1 signaling after BMP4 presentation ([2]; day 3 colonies treated with BMP4 3 ng/ml for 1, 3, 5, 10, 24 hours (FIG. 4A))","overall spatial distribution of cell types ([3]; BMP4 0, 3, 13 and 50 ng/ml from day 3)","number of SIX1+ cells ([3]; BMP4 0, 3, 13 and 50 ng/ml from day 3 (FIG. 2E, 8H))"
Cc1ccc2c(c1)C(=O)C1(O)CCN(c3ccccc3)C1=N2 (centres unmarked) [blebbistatin],phenocopies the opened neuro-epithelium observed in HD and Htt−/− neuruloids,,,,
B1,,induction of TFAP2A+ in the same domain,pulse of pSMAD1 restricted to the colony edge,independent of BMP4 concentration,peaked at intermediate levels
